Results reported in publication PMC3848460.

T1: SYP43 (Arabidopsis thaliana) (UniProt Q9SUJ1)
T1 sequence: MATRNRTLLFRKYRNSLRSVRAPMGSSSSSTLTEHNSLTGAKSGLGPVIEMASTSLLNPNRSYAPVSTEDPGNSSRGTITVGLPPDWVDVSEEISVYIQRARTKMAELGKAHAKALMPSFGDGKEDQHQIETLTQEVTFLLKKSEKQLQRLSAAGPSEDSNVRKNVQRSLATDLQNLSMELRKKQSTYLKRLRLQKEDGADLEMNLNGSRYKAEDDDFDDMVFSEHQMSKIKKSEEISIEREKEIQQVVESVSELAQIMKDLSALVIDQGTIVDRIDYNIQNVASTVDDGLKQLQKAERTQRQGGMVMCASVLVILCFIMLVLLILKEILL

T2: SYP41 (Arabidopsis thaliana) (UniProt O65359)
T2 sequence: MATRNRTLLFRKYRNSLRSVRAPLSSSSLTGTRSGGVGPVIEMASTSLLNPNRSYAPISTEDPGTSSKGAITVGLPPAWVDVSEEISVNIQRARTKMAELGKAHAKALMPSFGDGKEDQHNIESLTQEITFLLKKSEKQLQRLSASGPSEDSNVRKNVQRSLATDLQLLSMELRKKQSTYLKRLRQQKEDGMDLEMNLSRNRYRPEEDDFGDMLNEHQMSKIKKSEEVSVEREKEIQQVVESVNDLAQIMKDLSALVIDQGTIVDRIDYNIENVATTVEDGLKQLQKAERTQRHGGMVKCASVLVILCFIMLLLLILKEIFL

T3: SYP42 (Arabidopsis thaliana) (UniProt Q9SWH4)
T3 sequence: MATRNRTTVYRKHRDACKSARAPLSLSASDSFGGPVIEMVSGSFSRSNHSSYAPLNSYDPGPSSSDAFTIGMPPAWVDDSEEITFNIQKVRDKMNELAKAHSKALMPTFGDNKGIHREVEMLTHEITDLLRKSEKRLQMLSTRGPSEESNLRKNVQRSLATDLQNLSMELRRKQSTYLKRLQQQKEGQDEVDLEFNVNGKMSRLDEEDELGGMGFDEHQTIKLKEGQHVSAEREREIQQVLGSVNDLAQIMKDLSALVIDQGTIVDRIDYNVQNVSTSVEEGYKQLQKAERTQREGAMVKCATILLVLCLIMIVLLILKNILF


Experiments:
[1] = target: T1, SYP43 (Arabidopsis thaliana)
[2] = target: T2, SYP41 (Arabidopsis thaliana)
[3] = target: T3, SYP42 (Arabidopsis thaliana)

| NBD fluorescence increase (lipid mixing) of SYP43 acceptor vesicles with R-VTI11 donor vesicles after 30 min preincubation with YKT62 and VTI12s; pair blocked: m3 + m4 [1] [%] | NBD fluorescence increase (lipid mixing) of SYP43 acceptor vesicles with R-VTI12 donor vesicles after 30 min preincubation with YKT62 and VTI12s; pair blocked: m3 + m5 [1] [%] | NBD fluorescence increase (lipid mixing) of SYP41 acceptor vesicles with R-VTI11 donor vesicles after 30 min preincubation with YKT62 and VTI12s; pair blocked: m1 + m4 [2] [%] | NBD fluorescence increase (lipid mixing) of SYP41 acceptor vesicles with R-VTI12 donor vesicles after 30 min preincubation with YKT62 and VTI12s; pair blocked: m1 + m5 [2] [%] | NBD fluorescence increase (lipid mixing) of SYP42 acceptor vesicles with R-VTI11 donor vesicles after 30 min preincubation with YKT62 and VTI12s; pair blocked: m2 + m4 [3] [%] | NBD fluorescence increase (lipid mixing) of SYP42 acceptor vesicles with R-VTI12 donor vesicles after 30 min preincubation with YKT62 and VTI12s; pair blocked: m2 + m5 [3] [%] | NBD fluorescence increase (lipid mixing) of SYP43 acceptor vesicles with R-VTI11 donor vesicles after 30 min preincubation with YKT62 and VTI11s; pair blocked: m3 + m4 [1] [%] | NBD fluorescence increase (lipid mixing) of SYP43 acceptor vesicles with R-VTI12 donor vesicles after 30 min preincubation with YKT62 and VTI11s; pair blocked: m3 + m5 [1] [%] | NBD fluorescence increase (lipid mixing) of SYP41 acceptor vesicles with R-VTI11 donor vesicles after 30 min preincubation with YKT62 and VTI11s; pair blocked: m1 + m4 [2] [%] | NBD fluorescence increase (lipid mixing) of SYP41 acceptor vesicles with R-VTI12 donor vesicles after 30 min preincubation with YKT62 and VTI11s; pair blocked: m1 + m5 [2] [%] | NBD fluorescence increase (lipid mixing) of SYP42 acceptor vesicles with R-VTI11 donor vesicles after 30 min preincubation with YKT62 and VTI11s; pair blocked: m2 + m4 [3] [%] | NBD fluorescence increase (lipid mixing) of SYP42 acceptor vesicles with R-VTI12 donor vesicles after 30 min preincubation with YKT62 and VTI11s; pair blocked: m2 + m5 [3] [%] | Molecule |
| --- | --- | --- | --- | --- | --- | --- | --- | --- | --- | --- | --- | --- |
| < 4 | < 4 | < 4 | < 4 | < 4 | < 4 |  |  |  |  |  |  | soluble fragment of VTI12 (domain or fragment) |
|  |  |  |  |  |  | < 4 | < 4 | < 4 | < 4 | < 4 | < 4 | soluble fragment of VTI11 (domain or fragment) MSDVFDGYERQYCELSASLSKKCSSAISLDGEQKKQKLSEIKSGLENAEVLIRKMDLEARTLPPNLKSSLLVKLREFKSDLNNFKTEVKRITSGQLNAAARDELLEAGMADTKTASADQRARLMMSTERLGRTTDRVKDSRRTMMETEEIGVSILQDLHGQRQSLLRAHETLHGVDDNIGKSKKILTDMTRRMNKNKWTI |
